Results: paper PMC10397247

How the values were obtained:
Test in all cases: two-hybrid library CCNG1;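 note: natural log of median RNA to DNA barcode read ratio; higher means stronger binding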
4H2697-bH = target: T1, 4H2697-bH
T1 chain: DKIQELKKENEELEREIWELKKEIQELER

4H3189-bH = target: T2, 4H3189-bH
T2 chain: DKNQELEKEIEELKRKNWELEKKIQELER

4H331-bH = target: T3, 4H331-bH
T3 chain: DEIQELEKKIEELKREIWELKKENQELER

4H3606-bH = target: T4, 4H3606-bH
T4 chain: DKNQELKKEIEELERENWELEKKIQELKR

4H370-bH = target: T5, 4H370-bH
T5 chain: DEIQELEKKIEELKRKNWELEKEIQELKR

4H3782-bH = target: T6, 4H3782-bH
T6 chain: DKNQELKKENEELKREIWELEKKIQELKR

4H3843-bH = target: T7, 4H3843-bH
T7 chain: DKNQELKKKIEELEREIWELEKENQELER

4H4001-bH = target: T8, 4H4001-bH
T8 chain: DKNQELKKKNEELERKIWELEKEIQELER

4H462-bH = target: T9, 4H462-bH
T9 chain: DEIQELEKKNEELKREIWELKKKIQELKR

4H568-bH = target: T10, 4H568-bH
T10 chain: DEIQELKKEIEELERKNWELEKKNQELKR

4H607-bH = target: T11, 4H607-bH
T11 chain: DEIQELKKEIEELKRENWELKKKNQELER

4H687-bH = target: T12, 4H687-bH
T12 chain: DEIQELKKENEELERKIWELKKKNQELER

4H72-bH = target: T13, 4H72-bH
T13 chain: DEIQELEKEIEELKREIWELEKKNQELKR

4H797-bH = target: T14, 4H797-bH
T14 chain: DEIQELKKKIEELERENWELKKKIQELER

4H883-bH = target: T15, 4H883-bH
T15 chain: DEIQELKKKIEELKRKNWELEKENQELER

4H918-bH = target: T16, 4H918-bH
T16 chain: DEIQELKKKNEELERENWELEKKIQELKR

4H953-bH = target: T17, 4H953-bH
T17 chain: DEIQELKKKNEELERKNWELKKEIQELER

4H967-bH = target: T18, 4H967-bH
T18 chain: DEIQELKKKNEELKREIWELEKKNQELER

4H3172-bH = target: T19, 4H3172-bH
T19 chain: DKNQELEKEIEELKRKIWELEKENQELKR

4H3414-bH = target: T20, 4H3414-bH
T20 chain: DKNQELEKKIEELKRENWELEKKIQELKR

4H3631-bH = target: T21, 4H3631-bH
T21 chain: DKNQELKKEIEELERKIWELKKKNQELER

4H3638-bH = target: T22, 4H3638-bH
T22 chain: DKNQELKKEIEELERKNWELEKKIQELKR

4H3817-bH = target: T23, 4H3817-bH
T23 chain: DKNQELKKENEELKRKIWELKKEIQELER

4H3974-bH = target: T24, 4H3974-bH
T24 chain: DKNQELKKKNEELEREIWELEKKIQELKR

4H570-bH = target: T25, 4H570-bH
T25 chain: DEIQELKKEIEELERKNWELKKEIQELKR

4H584-bH = target: T26, 4H584-bH
T26 chain: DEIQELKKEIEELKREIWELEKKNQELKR

4H619-bH = target: T27, 4H619-bH
T27 chain: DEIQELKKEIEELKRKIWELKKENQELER

4H850-bH = target: T28, 4H850-bH
T28 chain: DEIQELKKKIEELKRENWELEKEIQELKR

4H906-bH = target: T29, 4H906-bH
T29 chain: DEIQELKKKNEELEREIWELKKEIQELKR

4H3129-bH = target: T30, 4H3129-bH
T30 chain: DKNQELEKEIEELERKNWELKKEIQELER

4H3961-bA = target: T31, 4H3961-bA; conditions: mean of both orientations
T31 chain: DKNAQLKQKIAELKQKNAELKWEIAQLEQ

4H470-bA = target: T32, 4H470-bA
T32 chain: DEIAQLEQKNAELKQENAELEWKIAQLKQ

4H2585-bH = target: T33, 4H2585-bH
T33 chain: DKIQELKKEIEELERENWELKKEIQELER

4H264-bH = target: T34, 4H264-bH
T34 chain: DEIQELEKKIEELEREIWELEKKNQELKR

4H2760-bH = target: T35, 4H2760-bH
T35 chain: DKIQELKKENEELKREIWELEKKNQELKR

4H2859-bH = target: T36, 4H2859-bH
T36 chain: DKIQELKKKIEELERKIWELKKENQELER

4H2931-bH = target: T37, 4H2931-bH
T37 chain: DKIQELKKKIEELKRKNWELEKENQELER

4H3041-bH = target: T38, 4H3041-bH
T38 chain: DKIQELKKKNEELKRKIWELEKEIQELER

4H3297-bH = target: T39, 4H3297-bH
T39 chain: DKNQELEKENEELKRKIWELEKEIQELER

4H3364-bH = target: T40, 4H3364-bH
T40 chain: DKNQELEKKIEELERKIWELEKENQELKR

4H3381-bH = target: T41, 4H3381-bH
T41 chain: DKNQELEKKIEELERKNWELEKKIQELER

4H349-bH = target: T42, 4H349-bH
T42 chain: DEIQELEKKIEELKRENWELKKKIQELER

4H477-bN = target: T43, 4H477-bN
T43 chain: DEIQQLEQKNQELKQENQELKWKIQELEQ

4H56-bH = target: T44, 4H56-bH
T44 chain: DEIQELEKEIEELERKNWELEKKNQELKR

4H730-bH = target: T45, 4H730-bH
T45 chain: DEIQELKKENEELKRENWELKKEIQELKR

4H796-bH = target: T46, 4H796-bH
T46 chain: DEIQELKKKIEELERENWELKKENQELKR

4H932-bH = target: T47, 4H932-bH
T47 chain: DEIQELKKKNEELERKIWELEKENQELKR

4H949-bH = target: T48, 4H949-bH
T48 chain: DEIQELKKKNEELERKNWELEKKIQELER

P7A-bN = target: T49, P7A-bN
T49 chain: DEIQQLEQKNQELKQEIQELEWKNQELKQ

P8A-bN = target: T50, P8A-bN
T50 chain: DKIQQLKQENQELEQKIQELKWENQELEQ

P9A-bN = target: T51, P9A-bN
T51 chain: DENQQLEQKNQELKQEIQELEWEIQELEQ

O2-bS = target: T52, O2-bS
T52 chain: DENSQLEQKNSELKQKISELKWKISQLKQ

O4-bS = target: T53, O4-bS
T53 chain: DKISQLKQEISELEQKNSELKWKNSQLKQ

O5-bS = target: T54, O5-bS
T54 chain: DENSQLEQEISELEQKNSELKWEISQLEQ

O6-bS = target: T55, O6-bS
T55 chain: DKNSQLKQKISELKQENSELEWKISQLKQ

O7-bS = target: T56, O7-bS
T56 chain: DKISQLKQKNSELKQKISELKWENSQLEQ

O8-bS = target: T57, O8-bS
T57 chain: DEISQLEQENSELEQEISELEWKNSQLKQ

O9-bS = target: T58, O9-bS
T58 chain: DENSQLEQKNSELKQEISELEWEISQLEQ

P9mSN = target: T59, P9mSN
T59 chain: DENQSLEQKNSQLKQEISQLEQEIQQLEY

4H796-bA = target: T60, 4H796-bA
T60 chain: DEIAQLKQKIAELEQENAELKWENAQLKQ

4H932-bA = target: T61, 4H932-bA
T61 chain: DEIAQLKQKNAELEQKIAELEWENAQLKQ

4H949-bA = target: T62, 4H949-bA
T62 chain: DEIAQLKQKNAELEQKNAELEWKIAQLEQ

O3-bS = target: T63, O3-bS
T63 chain: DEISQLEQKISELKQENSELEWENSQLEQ

4H741-bN = target: T64, 4H741-bN
T64 chain: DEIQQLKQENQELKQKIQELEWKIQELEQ

DKIQELKKENEELEREIWELKKEIQELER [4H2697-bH]
interaction score (4H2697-bH): 0.402
interaction score (4H3189-bH): -0.0723
interaction score (4H331-bH): 0.0266
interaction score (4H3606-bH): -1.34
interaction score (4H370-bH): -0.895
interaction score (4H3782-bH): 0.502
interaction score (4H3843-bH): -0.103
interaction score (4H4001-bH): -0.578
interaction score (4H462-bH): -0.915
interaction score (4H568-bH): -1.4
interaction score (4H607-bH): -0.619
interaction score (4H687-bH): -0.768
interaction score (4H72-bH): -1.97
interaction score (4H797-bH): -0.611
interaction score (4H883-bH): -0.628
interaction score (4H918-bH): -0.619
interaction score (4H953-bH): -0.201
interaction score (4H967-bH): 0.26

DKNQELEKEIEELKRKIWELEKENQELKR [4H3172-bH]
interaction score (4H3172-bH): 0.448
interaction score (4H3414-bH): 0.693
interaction score (4H3631-bH): 0.994
interaction score (4H3638-bH): -0.13
interaction score (4H3817-bH): -0.475
interaction score (4H3974-bH): 0.353
interaction score (4H570-bH): 0.871
interaction score (4H584-bH): -1.68
interaction score (4H619-bH): -1.22
interaction score (4H850-bH): -0.531
interaction score (4H906-bH): -0.821

DKNQELEKEIEELERKNWELKKEIQELER [4H3129-bH]
interaction score (4H3129-bH): -2.16
interaction score (4H3172-bH): -0.227
interaction score (4H3414-bH): 1.62
interaction score (4H3631-bH): -0.645
interaction score (4H3638-bH): -1.18
interaction score (4H3817-bH): -0.197
interaction score (4H3974-bH): -0.348
interaction score (4H570-bH): -1.61
interaction score (4H584-bH): -0.445
interaction score (4H619-bH): -0.44
interaction score (4H850-bH): 0.17
interaction score (4H906-bH): -0.384

DKNAQLKQKIAELKQKNAELKWEIAQLEQ [4H3961-bA]
interaction score (4H3961-bA): -1.09
interaction score (4H470-bA): -0.153

DKIQELKKEIEELERENWELKKEIQELER [4H2585-bH]
interaction score (4H2585-bH): -0.17
interaction score (4H264-bH): -0.751
interaction score (4H2760-bH): 0.55
interaction score (4H2859-bH): 0.965
interaction score (4H2931-bH): -0.336
interaction score (4H3041-bH): 0.00364
interaction score (4H3297-bH): -0.417
interaction score (4H3364-bH): -0.536
interaction score (4H3381-bH): -0.48
interaction score (4H349-bH): 1.63
interaction score (4H4001-bH): -0.0821
interaction score (4H477-bN): -0.435
interaction score (4H56-bH): 0.21
interaction score (4H730-bH): -0.529
interaction score (4H796-bH): -0.9
interaction score (4H932-bH): -1.27
interaction score (4H949-bH): -0.693

DEIQQLEQKNQELKQEIQELEWKNQELKQ [P7A-bN]
interaction score (P7A-bN): 0.344
interaction score (P8A-bN): 2.12
interaction score (P9A-bN): -1.19

DENSQLEQKNSELKQKISELKWKISQLKQ [O2-bS]
interaction score (O2-bS): -0.754
interaction score (O4-bS): -1.49
interaction score (O5-bS): -2.56
interaction score (O6-bS): -1.1
interaction score (O7-bS): -0.412
interaction score (O8-bS): -2.49
interaction score (O9-bS): -1.59

DKNQQLKQEIQELEQENQELEWKIQELKQ [P6A-bN]
interaction score (P7A-bN): 0.204
interaction score (P8A-bN): -0.195
interaction score (P9A-bN): 0.0031
interaction score (P9mSN): -0.239

DEIAQLEQKNAELKQENAELEWKIAQLKQ [4H470-bA]
interaction score (4H470-bA): 0.201

DEIAQLKQKIAELEQENAELKWENAQLKQ [4H796-bA]
interaction score (4H796-bA): 0.961
interaction score (4H932-bA): -0.164
interaction score (4H949-bA): -0.898
interaction score (O3-bS): -0.947

DEIQQLKQENQELKQKIQELEWKIQELEQ [4H741-bN]
interaction score (4H741-bN): 1.19
interaction score (O2-bS): -3.38
